The data set concerns the target T1, PUF4 RNA-binding domain (Saccharomyces cerevisiae, UniProt P25339 537-888).
T1 sequence: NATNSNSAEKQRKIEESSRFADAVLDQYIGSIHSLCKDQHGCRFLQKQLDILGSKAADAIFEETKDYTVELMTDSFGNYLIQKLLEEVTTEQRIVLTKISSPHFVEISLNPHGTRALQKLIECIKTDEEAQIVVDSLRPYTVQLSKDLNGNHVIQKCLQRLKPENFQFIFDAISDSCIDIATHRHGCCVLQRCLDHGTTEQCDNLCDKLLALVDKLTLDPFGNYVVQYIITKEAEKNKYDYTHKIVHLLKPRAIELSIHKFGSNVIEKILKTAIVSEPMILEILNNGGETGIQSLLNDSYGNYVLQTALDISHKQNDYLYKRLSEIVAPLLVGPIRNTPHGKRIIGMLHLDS
The experiment in a line: Mg; RNA-MaP; 20 mM Na-HEPES pH 7.4, 30 mM KOAc, 0.75 mM MgCl2, 0.1% Tween-20, 5% glycerol, 0.1 mg/mL BSA, 2 mM DTT; 25 C; 0.0125-409.6 nM protein. The following applies: tags: N-His6-TEV cleaved; C-SNAP kept, Cy3B-labelled; label: tethered on chip by stalled RNA polymerase.

Changes are numbered by the printed parent chain. Names may count otherwise.

In the case of ACAAACUGCUUAUAUUAACAAAC (ssRNA) [Ie_S3_P4E.1_K4.1_C4.1_H4.1_[+2CT]_A4.1_F4.1_T4.1], binding was put at a Kd of 1800 nM.
To ACAAACUCUCUCGUAUAUUAACAAAC (ssRNA) [Ie_S3_P4E.1_K4.1_C4.1_H4.1_[+1CTCTC]_A4.1_F4.1_T4.1] belongs 69.5 nM; to ACAAACUGUAUUUCUAUUAACAAAC (ssRNA) [Ie_S3_P5E.1_K5.1_C5.1_H5.1_A5.1_[+6TCT]_F5.1_T5.1], 7.3 nM.
As for ACAAACUGUACCUCUAUUAACAAAC (ssRNA) [Ie_S3_P4E.1_K4.1_C4.1_H4.1_[+4CCTC]_A4.1_F4.1_T4.1], the Kd stood at 14.7 nM.
To ACAAACUGUAUAUUCCCUAACAAAC (ssRNA) [Ie_S3_P4E.1_K4.1_C4.1_H4.1_A4.1_F4.1_[+8CCCT]_T4.1] belongs 6.57 nM; to ACAAACUGUAUUCCCAUUAACAAAC (ssRNA) [Ie_S3_P5E.1_K5.1_C5.1_H5.1_A5.1_[+6CCC]_F5.1_T5.1], 203 nM; to ACAAACUGUACUCUUAUUAACAAAC (ssRNA) [Ie_S3_P5E.1_K5.1_C5.1_H5.1_[+4CTC]_A5.1_F5.1_T5.1], 7.73 nM.
To ACAAACUGUAUUAUUUCUAACAAAC (ssRNA) [Ie_S3_P5E.1_K5.1_C5.1_H5.1_A5.1_F5.1_[+8TTC]_T5.1] belongs 19.1 nM; to ACAAACUGUAUAUUUCUCAACAAAC (ssRNA) [Ie_S3_P4E.1_K4.1_C4.1_H4.1_A4.1_F4.1_[+8TCTC]_T4.1], 8.77 nM; to ACAAACUGUAUUACCCUUAACAAAC (ssRNA) [Ie_S3_P5E.1_K5.1_C5.1_H5.1_A5.1_[+7CCC]_F5.1_T5.1], 510 nM.
To ACAAACUGUCUAUUAUUAACAAAC (ssRNA) [Ie_S3_P5E.1_K5.1_C5.1_H5.1_[+3CT]_A5.1_F5.1_T5.1] belongs 28.6 nM; to ACAAACUGUAUUAUCCCUAACAAAC (ssRNA) [Ie_S3_P5E.1_K5.1_C5.1_H5.1_A5.1_F5.1_[+8CCC]_T5.1], 37.5 nM.

B1: Ib_S2_P3E.1_K3.1_C3.1_H3.1_[T3C]_[A4G]_A3.1_F3.1_T3.1 (ssRNA)
RNA: UUUGAUUAAUAUGAUAUCGUUCUUUCUUGCGUAUAUUCUUUCUCGAUAUCAUAUUAAUCUUU
As to B1, the Kd turned out to be 1100 nM.

B2: Ib_S2_P3E.1_K3.1_C3.1_H3.1_[T1A]_A3.1_[T5C]_F3.1_T3.1 (ssRNA)
RNA: B1 RNA with U28A, C30U, G31A, U32C
B2 yielded a dissociation constant (Kd) of more than 2300 nM.

B3: Ib_S2_P3E.1_K3.1_C3.1_H3.1_[T1C]_A3.1_[T5A]_F3.1_T3.1 (ssRNA)
RNA: B1 RNA with U28C, C30U, G31A, U32A
B3 registered a Kd of more than 2300 nM.

B4: Ib_S2_P3E.1_K3.1_C3.1_H3.1_[T1G]_A3.1_[A6G]_F3.1_T3.1 (ssRNA)
RNA: B1 RNA with U28G, C30U, G31A, A33G
On to B4, for which the affinity, expressed as Kd, was 277 nM.

B5: Ib_S2_P3E.1_K3.1_C3.1_H3.1_[T1G]_A3.1_[A6T]_F3.1_T3.1 (ssRNA)
RNA: B1 RNA with U28G, C30U, G31A, A33U
Regarding B5, the Kd was more than 2300 nM.
Take ACAAACUGCUAUAUUAACAAAC (ssRNA) [Ie_S3_P4E.1_K4.1_C4.1_H4.1_[+2C]_A4.1_F4.1_T4.1]: the Kd turned out to be 672 nM.
For the molecule ACAAACUGUCUCUAUUAUUAACAAAC (ssRNA) [Ie_S3_P5E.1_K5.1_C5.1_H5.1_[+3CTCT]_A5.1_F5.1_T5.1], the Kd was 366 nM.
To ACAAACUGCUUUAUAUUAACAAAC (ssRNA) [Ie_S3_P4E.1_K4.1_C4.1_H4.1_[+2CTT]_A4.1_F4.1_T4.1] belongs 896 nM.
ACAAACUGUAUUAUUUCCUAACAAAC (ssRNA) [Ie_S3_P5E.1_K5.1_C5.1_H5.1_A5.1_F5.1_[+8TTCC]_T5.1] returned a Kd of 21.6 nM.
To ACAAACUGUAUCCCUUUAUUAACAAAC (ssRNA) [Ie_S3_P5E.1_K5.1_C5.1_H5.1_A5.1_[+5CCCTT]_F5.1_T5.1] belongs 92.6 nM; to ACAAACCUUGCCUUAUAUAUAACAAAC (ssRNA) [Ie_S3_P3E.2_K3.1_C3.2_H3.1_[+2CCT]_A3.1_F3.1_T3.2], 1170 nM; to ACAAACUGUAUUAUCUCUCUAACAAAC (ssRNA) [Ie_S3_P5E.1_K5.1_C5.1_H5.1_A5.1_F5.1_[+8CTCTC]_T5.1], 29.1 nM.
To ACAAACCUUUUCCGUAUAUAUAACAAAC (ssRNA) [Ie_S3_P3E.2_K3.1_C3.2_H3.1_[+1TTCC]_A3.1_F3.1_T3.2] belongs 1200 nM; to ACAAACUGCCUCUAUAUUAACAAAC (ssRNA) [Ie_S3_P4E.1_K4.1_C4.1_H4.1_[+2CCTC]_A4.1_F4.1_T4.1], more than 2300 nM.
To ACAAACUGUACCUCUUUAUUAACAAAC (ssRNA) [Ie_S3_P5E.1_K5.1_C5.1_H5.1_[+4CCTCT]_A5.1_F5.1_T5.1] belongs 52.5 nM.
Regarding ACAAACCUUGCCCUUUAUAUAUAACAAAC (ssRNA) [Ie_S3_P3E.2_K3.1_C3.2_H3.1_[+2CCCTT]_A3.1_F3.1_T3.2], the Kd worked out at 1020 nM.
To ACAAACUGUAUUACUCUCUUAACAAAC (ssRNA) [Ie_S3_P5E.1_K5.1_C5.1_H5.1_A5.1_[+7CTCTC]_F5.1_T5.1] belongs 128 nM; to ACAAACUGUAUUUCUCUAUUAACAAAC (ssRNA) [Ie_S3_P5E.1_K5.1_C5.1_H5.1_A5.1_[+6TCTCT]_F5.1_T5.1], 38.4 nM.
In turn, ACAAACUGCUUUAUUAUUAACAAAC (ssRNA) [Ie_S3_P5E.1_K5.1_C5.1_H5.1_[+2CTT]_A5.1_F5.1_T5.1] had a Kd of more than 2300 nM.
Take ACAAACUGUCCCUUAUUAUUAACAAAC (ssRNA) [Ie_S3_P5E.1_K5.1_C5.1_H5.1_[+3CCCTT]_A5.1_F5.1_T5.1]: binding was characterised by a dissociation constant (Kd) of 698 nM.
To ACAAACUGUCUCUUAUUAUUAACAAAC (ssRNA) [Ie_S3_P5E.1_K5.1_C5.1_H5.1_[+2TCTCT]_A5.1_F5.1_T5.1] belongs 513 nM; to ACAAACUGUAUAUUCUCUAACAAAC (ssRNA) [Ie_S3_P4E.1_K4.1_C4.1_H4.1_A4.1_[+7TCTC]_F4.1_T4.1], 6.81 nM.
To ACAAACUGUAUUCCUAUUAACAAAC (ssRNA) [Ie_S3_P4E.1_K4.1_C4.1_H4.1_[+4TTCC]_A4.1_F4.1_T4.1] belongs 9.85 nM.
To ACAAACUGCUUAUUAUUAACAAAC (ssRNA) [Ie_S3_P5E.1_K5.1_C5.1_H5.1_[+2CT]_A5.1_F5.1_T5.1] belongs more than 2300 nM; to ACAAACUGUACCUCUUAUUAACAAAC (ssRNA) [Ie_S3_P5E.1_K5.1_C5.1_H5.1_[+4CCTC]_A5.1_F5.1_T5.1], 27.2 nM.
ACAAACUGUACCCUUUUAUUAACAAAC (ssRNA) [Ie_S3_P5E.1_K5.1_C5.1_H5.1_[+4CCCTT]_A5.1_F5.1_T5.1] displayed a Kd of 30.4 nM.
To ACAAACUGUCCUCAUAUUAACAAAC (ssRNA) [Ie_S3_P4E.1_K4.1_C4.1_H4.1_[+3CCTC]_A4.1_F4.1_T4.1] belongs 650 nM.
To ACAAACUCUCGUAUUAUUAACAAAC (ssRNA) [Ie_S3_P5E.1_K5.1_C5.1_H5.1_[+1CTC]_A5.1_F5.1_T5.1] belongs 1830 nM; to ACAAACUGUCCUAUUAUUAACAAAC (ssRNA) [Ie_S3_P5E.1_K5.1_C5.1_H5.1_[+2TCC]_A5.1_F5.1_T5.1], 101 nM.
To ACAAACUGUAUCCCUAUUAACAAAC (ssRNA) [Ie_S3_P5E.1_K5.1_C5.1_H5.1_A5.1_[+5CCC]_F5.1_T5.1] belongs 24.3 nM; to ACAAACUGCUCUAUAUUAACAAAC (ssRNA) [Ie_S3_P4E.1_K4.1_C4.1_H4.1_[+2CTC]_A4.1_F4.1_T4.1], 1270 nM.
With ACAAACUGUAUUACUUUUAACAAAC (ssRNA) [Ie_S3_P5E.1_K5.1_C5.1_H5.1_A5.1_[+7CTT]_F5.1_T5.1], the Kd was determined as 115 nM.
To ACAAACUGUAUUAUUCCCAACAAAC (ssRNA) [Ie_S3_P5E.1_K5.1_C5.1_H5.1_A5.1_F5.1_[+9CCC]_T5.1] belongs 18.1 nM.
To ACAAACUGUAUUACCUUUAACAAAC (ssRNA) [Ie_S3_P5E.1_K5.1_C5.1_H5.1_A5.1_[+7CCT]_F5.1_T5.1] belongs 221 nM; to ACAAACUGCCUCUAUUAUUAACAAAC (ssRNA) [Ie_S3_P5E.1_K5.1_C5.1_H5.1_[+2CCTC]_A5.1_F5.1_T5.1], more than 2300 nM.
To ACAAACUGUCCUAUAUUAACAAAC (ssRNA) [Ie_S3_P4E.1_K4.1_C4.1_H4.1_[+3CCT]_A4.1_F4.1_T4.1] belongs 59.9 nM; to ACAAACUGUCCCUAUAUUAACAAAC (ssRNA) [Ie_S3_P4E.1_K4.1_C4.1_H4.1_[+3CCCT]_A4.1_F4.1_T4.1], 602 nM; to ACAAACUGUAUAUCUCUCUAACAAAC (ssRNA) [Ie_S3_P4E.1_K4.1_C4.1_H4.1_A4.1_[+7CTCTC]_F4.1_T4.1], 14.6 nM.
Molecule ACAAACUGUAUCUCUCUAUUAACAAAC (ssRNA) [Ie_S3_P5E.1_K5.1_C5.1_H5.1_A5.1_[+5CTCTC]_F5.1_T5.1] returned a Kd of 30.4 nM.
To ACAAACCUUGCCUCUUAUAUAUAACAAAC (ssRNA) [Ie_S3_P3E.2_K3.1_C3.2_H3.1_[+2CCTCT]_A3.1_F3.1_T3.2] belongs 1010 nM; to ACAAACUGCCCUAUAUUAACAAAC (ssRNA) [Ie_S3_P4E.1_K4.1_C4.1_H4.1_[+2CCC]_A4.1_F4.1_T4.1], 1560 nM; to ACAAACUGUAUAUUCCUAACAAAC (ssRNA) [Ie_S3_P4E.1_K4.1_C4.1_H4.1_A4.1_[+7TCC]_F4.1_T4.1], 7.23 nM.
To ACAAACUGUAUAUUAUUCCACAAAC (ssRNA) [Ie_S3_P4E.1_K4.1_C4.1_H4.1_A4.1_F4.1_[+9TTCC]_T4.1] belongs 0.554 nM.

As a reminder, the Kd is the constant that tells how readily two partners part at equilibrium.

Values taken from PMC9352680, “A comprehensive thermodynamic model for RNA binding by the Saccharomyces cerevisiae Pumilio protein PUF4”.
